Measured values taken from paper PMC9201945 (Frontiers in Molecular Neuroscience, 2022).

B1: Amphiphysin2-GFP (natural protein, UniProt O00499 1-593, looked up)
chain: MAEMGSKGVTAGKIASNVQKKLTRAQEKVLQKLGKADETKDEQFEQCVQNFNKQLTEGTRLQKDLRTYLASVKAMHEASKKLNECLQEVYEPDWPGRDEANKIAENNDLLWMDYHQKLVDQALLTMDTYLGQFPDIKSRIAKRGRKLVDYDSARHHYESLQTAKKKDEAKIAKPVSLLEKAAPQWCQGKLQAHLVAQTNLLRNQAEEELIKAQKVFEEMNVDLQEELPSLWNSRVGFYVNTFQSIAGLEENFHKEMSKLNQNLNDVLVGLEKQHGSNTFTVKAQPSDNAPAKGNKSPSPPDGSPAATPEIRVNHEPEPAGGATPGATLPKSPSQLRKGPPVPPPPKHTPSKEVKQEQILSLFEDTFVPEISVTTPSQFEAPGPFSEQASLLDLDFDPLPPVTSPVKAPTPSGQSIPWDLWEPTESPAGSLPSGEPSAAEGTFAVSWPSQTAEPGPAQPAEASEVAGGTQPAAGAQEPGETAASEAASSSLPAVVVETFPATVNGTVEGGSGAGRLDLPPGFMFKVQAQHDYTATDTDELQLKAGDVVLVIPFQNPEEQDEGWLMGVKESDWNQHKELEKCRGVFPENFTERVP
notes: Amphiphysin 2, BAR domain protein; plasmid a gift from Dr. Emmanuel Boucrot; Called Amphiphysin2-GFP in the methods and ^GFPAmphiphysin in the results and the legend; also called ^GFPAmphiphysin; ^GFPamphiphysin; source: HEK293, transfected, cross-linked in cells, in lysate
B2: his6ΔNT-PICK1 (natural protein, UniProt Q9EP80 1-416, looked up)
chain: MFAKLGIPTVPGKVTLQKDAQNLIGISIGGGAQYCPCLYIVQVFDNTPAALDGTVAAGDEITGVNGRSIKGKTKVEVAKMIQEVKGEVTIHYNKLQADPKQGMSLDIVLKKVKHRLVENMSSGTADALGLSRAILCNDGLVKRLEELERTAELYKGMTEHTKNLLRAFYELSQTHRAFGDVFSVIGVREPQPAASEAFVKFADAHRSIEKFGIRLLKTIKPMLTDLNTYLNKAIPDTRLTIKKYLDVKFEYLSYCLKVKEMDDEEYSCIALGEPLYRVSTGNYEYRLILRCRQEARARFSQMRKDVLEKMELLDQKHVQDIVFQLQRFVSTMSKYYNDCYAVLRDADVFPIEVDLAHTTLAYGPNQGGFTDGEDEEEEEEDGAAREVSKDARGATGPTDKGGSWCDS
notes: source: E. coli BL21(DE3), pET28, purified (Ni-NTA)
B3: his64A-PICK1 (natural protein, UniProt Q9EP80 1-416, looked up)
chain: MFADLDYDIEEDKLGIPTVPGKVTLQKDAQNLIGISIGGGAQYCPCLYIVQVFDNTPAALDGTVAAGDEITGVNGRSIKGKTKVEVAKMIQEVKGEVTIHYNKLQADPKQGMSLDIVLKKVKHRLVENMSSGTADALGLSRAILCNDGLVKRLEELERTAELYKGMTEHTKNLLRAFYELSQTHRAFGDVFSVIGVREPQPAASEAFVKFADAHRSIEKFGIRLLKTIKPMLTDLNTYLNKAIPDTRLTIKKYLDVKFEYLSYCLKVKEMAAAAYSCIALGEPLYRVSTGNYEYRLILRCRQEARARFSQMRKDVLEKMELLDQKHVQDIVFQLQRFVSTMSKYYNDCYAVLRDADVFPIEVDLAHTTLAYGPNQGGFTDGEDEEEEEEDGAAREVSKDARGATGPTDKGGSWCDS
notes: PICK1 with residues 271DDEE274 in the BAR domain substituted by alanines; source: E. coli BL21(DE3), pET28, purified (Ni-NTA)
B4: GFP-Endophilin A1 (natural protein, UniProt Q99962 1-352, looked up)
chain: MSVAGLKKQFHKATQKVSEKVGGAEGTKLDDDFKEMERKVDVTSRAVMEIMTKTIEYLQPNPASRAKLSMINTMSKIRGQEKGPGYPQAEALLAEAMLKFGRELGDDCNFGPALGEVGEAMRELSEVKDSLDIEVKQNFIDPLQNLHDKDLREIQHHLKKLEGRRLDFDYKKKRQGKIPDEELRQALEKFDESKEIAESSMFNLLEMDIEQVSQLSALVQAQLEYHKQAVQILQQVTVRLEERIRQASSQPRREYQPKPRMSLEFPTGDSTQPNGGLSHTGTPKPSGVQMDQPCCRALYDFEPENEGELGFKEGDIITLTNQIDENWYEGMLHGHSGFFPINYVEILVALPH
notes: Endophilin A1, BAR domain protein; plasmid a gift from Dr. Ira Milosevic; The methods name only one 'GFP-endophilin'; source: HEK293, transfected, cross-linked in cells, in lysate

Key:
GFP-PICK1 BAR domain = experiment: cross-linking; HEK293 cells in 2 ml PBS with 0.3 mM DSS for 20 min at room temperature, quenched with 50 mM Tris, lysed, Western blot (anti-GFP or anti-PICK1); for untagged PICK1 after 5 min with 3 μM ionomycin and a range of extracellular CaCl2
[1] = target: the molecule itself; experiment: as above
[2] = target: the molecule itself; experiment: cross-linking; 100 nM purified his6 protein in 150 mM NaCl, 20 mM HEPES pH 7.4, 5 mM HEDTA, CaCl2 to give [Ca2+]free of 0, 2, 5, 12, 26 μM; 10 μM DSS for 20 min at room temperature, quenched with 50 mM Tris; Western blot with anti-PICK1

Molecule	stoichiometry N [1]	stoichiometry N [2]	other results
GFP-PICK1 BAR domain (domain or fragment)	–	–	stoichiometry N (GFP-PICK1 BAR domain): 2
B1	2	–	–
B2	–	2	–
B3	–	2	–
B4	2	–	–
